Source: US20230287338A1 (MINERVA BIOTECHNOLOGIES, published 2023)
Values belong to the binder of their own block, whether it stands above or below them. Groups on a side chain read outwards from the residue. No end group written: not given here. maleimide = maleimide group on the activated BSA carrier, coupling the C-terminal Cys

Columns and labels:
[1] = molecular target: T1, NME7-AB (recombinant human NME7 comprising essentially the NDPK A and B domains, expressed in E. coli) (human, UniProt Q9Y5B8 92-376); assay: gold nanoparticle aggregation assay
T1 construct: Monomeric; purified over NTA-Ni and by size exclusion; the purification described uses Ni-NTA; also called recombinant NME7; NME7 (NME7-AB construct); not shown: a Strep Tag II version was al
T1 sequence: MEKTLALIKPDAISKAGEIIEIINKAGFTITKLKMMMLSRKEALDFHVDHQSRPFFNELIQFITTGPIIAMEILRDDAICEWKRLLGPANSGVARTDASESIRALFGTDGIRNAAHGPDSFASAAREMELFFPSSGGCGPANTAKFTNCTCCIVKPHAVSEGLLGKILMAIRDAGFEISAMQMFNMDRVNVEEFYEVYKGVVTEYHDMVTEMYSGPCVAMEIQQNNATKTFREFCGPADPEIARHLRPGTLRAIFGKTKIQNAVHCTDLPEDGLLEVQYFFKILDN
Procedure: Gold nanoparticles of a diameter of 30.0 nm were coated with an NTA-SAM surface according to Thompson et al. (ACS Appl. Mater. Interfaces, 2011, 3 (8), pp 2979-2987). The NTA-SAM coated gold nanoparticles were then activated with an equal volume of 180 uM NiSO₄, incubated for 10 min at room temperature, washed, and resuspended in a 10 mM phosphate buffer (pH 7.4). The gold nanoparticles were then loaded with PSMGFR N-10 peptide ([…]-HHHHHH (SEQ ID NO:112)) at 0.5 uM final concentration, and incubated at room temperature for 10 min Recombinant NME7-AB protein expressed and purified from E. coli was added free in solution at the concentrations indicated. When particle-immobilized proteins bind to each other, or simultaneously bind to two different peptides on two different particles, the particle solution color changes from pink/red to purple/blue. If the protein added free in solution causes particle aggregation, it is strong evidence that the free protein dimerizes the cognate peptide, since binding to a single peptide would not induce two or more particles to be brought into close proximity to each other.
The NME7-AB is added free in solution at the concentrations indicated. Solution color change from pink to purple/blue from particle aggregation indicates binding between the MUC* peptide on the particles and NME7 free in solution. […]

[2] = molecular target: T1, NME7-AB (recombinant human NME7 …); assay: ELISA, carrier-coupled PSMGFR-Cys on plate
Procedure: (§1) The PSMGFR peptide bearing a C-terminal Cysteine (PSMGFR-Cys) was covalently coupled to BSA using Inject Maleimide activated BSA kit (Thermo Fisher). PSMGFR-Cys coupled BSA was diluted to 10 ug/mL in 0.1M carbonate/bicarbonate buffer pH 9.6 and 50 uL was added to each well of a 96 well plate. After overnight incubation at 4° C., the plate was wash twice with PBS-T and a 3% BSA solution was added to block remaining binding site on the well. After 1 h at RT the plate was washed twice with PBS-T and NME7, diluted in PBS-T+1% BSA, was added at different concentrations. After 1 h at RT the plate was washed 3× with PBS-T and anti-NM23-H7 (B-9, Santa Cruz Biotechnology), diluted in PBS-T+1% BSA, was added at 1/500 dilution. After 1 h at RT the plate was washed 3× with PBS-T and goat anti mouse-HRP, diluted in PBS-T+1% BSA, was added at 1/3333 dilution. After 1 h at RT the plate was washed 3× with PBS-T and binding of NME7 was measured at 415 nm using a ABTS solution (Pierce).

[3] = molecular target: T1, NME7-AB (recombinant human NME7 …); assay: sandwich ELISA, NME7-AB held on plate-bound PSMGFR, detection with streptavidin
Procedure: as §1, with “After 1 h at RT the plate was washed 3× with PBS-T and goat anti mouse-HRP, diluted in PBS-T+1% BSA, was added at 1/3333 dilution.” left out, “(Pierce). […]” for “(Pierce).”
(§2) After 1 h at RT the plate was washed 3× with PBS-T and HisTagged PSMGFR peptide (PSMGFR-His) or biotinylated PSMGFR peptide (PSMGFR-biotin), diluted in PBS-T+1% BSA, was added at different concentration. […] After 1 h at RT the plate was washed 3× with PBS-T and binding of PSMGFR peptide to NME7 already bound to another PSMGFR peptide (which could not signal by anti-His antibody or by streptavidin) coupled BSA was measured at 415 nm using a ABTS solution (Pierce).

[4] = molecular target: T1, NME7-AB (recombinant human NME7 …); assay: sandwich ELISA, NME7-AB held on plate-bound PSMGFR, detection with HRP labeled anti-His-tag antibody
Procedure: as §1, with “After 1 h at RT the plate was washed 3× with PBS-T and goat anti mouse-HRP, diluted in PBS-T+1% BSA, was added at 1/3333 dilution.” left out, “(Pierce). […]” for “(Pierce).”
as §2

B1: PSMGFR N-10 peptide (His-tagged) (peptide)
peptide: QFNQYKTEAASRYNLTISDVSVSDVPFPFSAQSGAHHHHHH
notes: loaded on NTA-Ni-SAM coated gold nanoparticles; also called N-10 PSMGFR peptide; MUC1* peptide on NTA-Ni-SAM nanoparticles
binding result [1]: binds

B2: PSMGFR peptide bearing a C-terminal Cysteine (PSMGFR-Cys) coupled to BSA (peptide)
peptide: GTINVHDVETQFNQYKTEAASRYNLTISDVSVSDVPFPFSAQSGAC([maleimide-BSA])
modifications: not fully specified
notes: Coated on the ELISA plate; also called PSMGFR-Cys coupled BSA; first MUC1* peptide of the sandwich ELISA
binding result [2]: binds

The next lines start with the values.

binding result [3]: binds
B3: biotinylated PSMGFR peptide (PSMGFR-biotin) (peptide)
peptide: GTINVHDVETQFNQYKTEAASRYNLTISDVSVSDVPFPFSAQSGA
modifications: also: biotinylated (position not given here)
notes: also called second MUC1* peptide with biotin

binding result [4]: binds
B4: histidine-tagged MUC1* extra cellular domain peptide (His-tagged PSMGFR sequence) (peptide)
peptide: GTINVHDVETQFNQYKTEAASRYNLTISDVSVSDVPFPFSAQSGAHHHHHH
notes: also called PSMGFR-His; HisTagged PSMGFR peptide
